# From patent US20160046944, “APTAMER TO IL-17 AND USE THEREOF” (THE UNIVERSITY OF TOKYO, published 2016)
# Substitutions are numbered along the chain they refer to.
# T1: IL-17 (Homo sapiens, UniProt Q16552 Q16552:24-155)
# T1 sequence: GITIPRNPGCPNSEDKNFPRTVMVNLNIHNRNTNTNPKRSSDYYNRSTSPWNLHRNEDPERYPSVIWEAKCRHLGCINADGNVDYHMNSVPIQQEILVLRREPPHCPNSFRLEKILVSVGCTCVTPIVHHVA
# T2: IL-17 (IL-17A) (Homo sapiens, UniProt Q16552 Q16552:24-155)
# T2 sequence: T1 sequence
# B1: aptamer No. 17 (mixed)
# mixed: GGGGUAGCCGGAGGAGTCAGTAAUCGGUACCCC
# modifications: 2'-OMe (M), 2'-F (F), PS (S) as marked; uppercase DNA [2'-OMe: 1-5,8,9,11,14,15,22,24-27,29; 2'-F: 12,18,19,28; PS: 7]
# B2: aptamer No. 18 (mixed)
# mixed: B1 mixed
# modifications: 2'-OMe (M), 2'-F (F), PS (S) as marked; uppercase DNA; (NI) printed, likely (M) [2'-OMe: 1-5,8,9,11,14,15,24-27,29 (26 printed NI, likely M); 2'-F: 12,18,19,28; PS: 7]
# B3: aptamer No. 5 (mixed)
# mixed: B1 mixed
# modifications: 2'-OMe (M), 2'-F (F), PS (S) as marked; uppercase DNA; SEQ ID NO:2 [1,2,3,4,5,6,7,8,9,11,12,14,15,18,19,22,23,24,25,26,27,28]
# B4: aptamer No. 19 (mixed)
# mixed: GGGUAGCCGGAGGAGTCAGTAAUCGGUACCC
# modifications: 2'-OMe (M), 2'-F (F), PS (S) as marked; uppercase DNA [2'-OMe: 1-4,7,8,10,13,14,21-26,28; 2'-F: 17,18,27; PS: 6]
# B5: aptamer No. 24 (mixed)
# mixed: B4 mixed with U27T
# modifications: 2'-OMe (M), 2'-F (F) as marked; uppercase DNA [2'-OMe: 1-4,7,8,10,13,14,23-26,29-31; 2'-F: 17]
# B6: aptamer No. 4 (mixed)
# RNA: B4 mixed with T16U, T20U
# modifications: 2'-OMe (M), 2'-F (F), PS (S) as marked; uppercase DNA [1,2,3,4,6,7,8,10,11,13,14,16,17,18,20,21,22,23,24,25,26,27,28]
# B7: aptamer No. 23 (mixed)
# mixed: B4 mixed with U27T
# modifications: 2'-OMe (M), 2'-F (F), PS (S) as marked; uppercase DNA [2'-OMe: 1-4,7,8,10,13,14,23-26,29-31; 2'-F: 17; PS: 6]
# B8: aptamer No. 20 (mixed)
# mixed: B4 mixed
# modifications: 2'-OMe (M), 2'-F (F), PS (S) as marked; uppercase DNA [2'-OMe: 1-4,7,8,10,13,14,21,23-26,28; 2'-F: 17,18,27; PS: 6]
# B9: aptamer No. 2 (mixed)
# RNA: B4 mixed with T16U, T20U
# modifications: 2'-OMe (M), 2'-F (F), PS (S) as marked; uppercase DNA [2'-OMe at 1-3,10; 2'-F at 4,7,8,16,17,20,23,24,27; PS at 6; DNA at 9,29-31]
# B10: aptamer No. 25 (mixed)
# mixed: B4 mixed with U27T
# modifications: 2'-OMe (M), 2'-F (F) as marked; uppercase DNA [2'-OMe: 1-4,7,8,10,13,14,21,23-26,29-31; 2'-F: 17]
# B11: aptamer No. 3 (mixed)
# RNA: B4 mixed with T16U, T20U
# modifications: 2'-OMe (M), 2'-F (F) as marked; uppercase DNA [1,2,3,4,5,7,8,10,11,13,14,16,17,18,20,21,22,23,24,25,26,27]
# B12: aptamer No. 45 (mixed)
# mixed: B4 mixed
# modifications: g(M)g(M)g(M)u(M)Ag(S)c(M)c(M)Gg(M)agg(M)a(M)gTc(F)agTaau(M)c(M)g(M)g(M)u(F)a(M)CCC
# B13: aptamer No. 44 (mixed)
# mixed: B4 mixed with U27T
# modifications: g(M)g(M)g(M)u(M)Agc(M)c(M)Gg(M)agg(M)a(M)gTc(F)AgTa(M)au(M)c(M)g(M)g(M)Ta(M)c(M)c(M)c(M)
# B14: aptamer No. 40 (mixed)
# mixed: B4 mixed with U27T
# modifications: g(M)g(M)g(M)u(M)Agc(M)c(M)Gg(M)Agg(M)a(M)gTc(F)AgTa(M)au(M)c(M)g(M)g(M)Ta(M)c(M)c(M)c(M)
# B15: aptamer No. 28 (mixed)
# mixed: B4 mixed with U27T
# modifications: g(M)g(M)g(M)u(M)Agc(M)c(M)Gg(M)Agg(M)a(M)gTc(F)agTaau(M)c(M)g(M)g(M)Ta(M)c(M)c(M)c(M)
# B16: aptamer No. 46 (mixed)
# mixed: B4 mixed
# modifications: g(M)g(M)g(M)u(M)Ag(S)c(M)c(M)Gg(M)Agg(M)a(M)gTc(F)agTaau(M)c(M)g(M)g(M)u(F)a(M)CCC
# B17: aptamer No. 43 (mixed)
# mixed: B4 mixed with U27T
# modifications: g(M)g(M)g(M)u(M)Agc(M)c(M)Gg(M)agg(M)a(M)gTc(F)agTa(M)au(M)c(M)g(M)g(M)Ta(M)c(M)c(M)c(M)
# B18: aptamer No. 38 (mixed)
# mixed: B4 mixed with U27T
# modifications: g(M)g(M)g(M)u(M)Agc(M)c(M)Gg(M)Agg(M)a(M)gTc(F)agTa(M)au(M)c(M)g(M)g(M)Ta(M)c(M)c(M)c(M)
# B19: aptamer No. 27 (mixed)
# mixed: B4 mixed with U27T
# modifications: g(M)g(M)g(M)u(M)Ag(S)c(M)c(M)Gg(M)Agg(M)a(M)gTc(F)agTa(M)Au(M)c(M)g(M)g(M)Ta(M)c(M)c(M)c(M)
# B20: aptamer No. 39 (mixed)
# mixed: B4 mixed with U27T
# modifications: g(M)g(M)g(M)u(M)Agc(M)c(M)Gg(M)Agg(M)a(M)gTc(F)AgTaa(M)u(M)c(M)g(M)g(M)Ta(M)c(M)c(M)c(M)
# B21: aptamer No. 37 (mixed)
# mixed: B4 mixed with U27T
# modifications: g(M)g(M)g(M)u(M)Agc(M)c(M)Gg(M)Agg(M)a(M)gTc(F)agTaAu(M)c(M)g(M)g(M)Ta(M)c(M)c(M)c(M) (one (M) misprinted as (NI))
# B22: aptamer No. 42 (mixed)
# mixed: B4 mixed with U27T
# modifications: g(M)g(M)g(M)u(M)Agc(M)c(M)Gg(M)agg(M)a(M)gTc(F)agTaAu(M)c(M)g(M)g(M)Ta(M)c(M)c(M)c(M)
# B23: aptamer No. 41 (mixed)
# mixed: B4 mixed with U27T
# modifications: g(M)g(M)g(M)u(M)Agc(M)c(M)Gg(M)agg(M)a(M)gTc(F)agTaau(M)c(M)g(M)g(M)Ta(M)c(M)c(M)c(M)
# Target: T1, IL-17
# Assay: cell_activity; NIH3T3 IL-6 release
# Details: chain copies: 2
# Procedure: (§1) First, human IL-17 and the aptamer produced in Example 1-1 were pre-incubated at 37° C. for 30 min, and added to NIH3T3 cell (ATCC, CRL1658) together with mouse TNFα (2 ng/mL). Then, after incubation for 24 hr, the culture supernatant was collected, and the amount of IL-6 was measured by BD Cytometric Bead Array (BD Biosciences). The IL-17 inhibitory action of each aptamer was determined from the amount of IL-6. For comparison with the aptamer of the present invention, a conventionally-known aptamer (aptamer No. 50) against IL-17 was used.
row,Binder,IC50
1,B1,0.3 nM
2,B2,0.15 nM
3,B3,0.13 nM
4,B4,2.78 nM
5,B5,1.77 nM
6,B6,2.78 nM
7,B7,1.34 nM
8,B8,0.37 nM
9,B9,0.68 nM
10,B10,1.64 nM
11,B11,2.08 nM

# Target: T2, IL-17 (IL-17A)
# Assay: cell_activity; IL-6 release, NIH3T3
# Details: chain copies: 2
# Procedure: as §1
row,Binder,IC50
1,B12,0.76 nM
2,B13,1.83 nM
3,B14,3.75 nM
4,B15,2.11 nM
5,B16,1.13 nM
6,B17,0.49 nM
7,B18,0.31 nM
8,B19,2.45 nM
9,B20,3.91 nM
10,B21,1.64 nM
11,B22,0.51 nM
12,B23,0.4 nM

# Target: T1, IL-17
# Assay: SPR; IL-17R-Fc on chip
# Details: chain copies: 2
# Procedure: Whether aptamers shown by aptamer Nos. 1-49 inhibit the binding of IL-17 and IL-17 receptor was evaluated by the surface plasmon resonance method.
# For the measurement, BIAcore2000 manufactured by BIAcore was used. […] As an analyte, IL-17 (100 or 150 nM) and an aptamer (50 or 100 nM) shown by aptamer No. 1-49 were mixed, maintained for 15 min and after that the mixture was flown.
row,Binder,binding signal
1,B1,4.21 % IL-17/IL-17R binding remaining
2,B2,13.6 % IL-17/IL-17R binding remaining
3,B3,32.3 % IL-17/IL-17R binding remaining
4,B4,8.46 % IL-17/IL-17R binding remaining
5,B5,15.2 % IL-17/IL-17R binding remaining
6,B6,26.8 % IL-17/IL-17R binding remaining
7,B7,13.4 % IL-17/IL-17R binding remaining
8,B8,18.5 % IL-17/IL-17R binding remaining
9,B9,32 % IL-17/IL-17R binding remaining
10,B10,11.7 % IL-17/IL-17R binding remaining
11,B11,25.3 % IL-17/IL-17R binding remaining
